Results taken from publication PMC4335501 (2015).

Molecular target: HAdV-52 long fiber knob (human adenovirus type 52 (HAdV-52))
Assay: SPR

B1: Recombinant human CAR (CXADR Fc chimera; full length extracellular D1D2 domain) (Fc fusion)
chain: LSITTPEEMIEKAKGETAYLPCKFTLSPEDQGPLDIEWLISPADNQKVDQVIILYSGDKIYDDYYPDLKGRVHFTSNDLKSGDASINVTNLQLSDIGTYQCKVKKAPGVANKKIHLVVLVKPSGARCYVDGSEEIGSDFKIKCEPKEGSLPLQYEWQKLSDSQKMPTSWLAEMTSSVISVKNASSEYSGTYSCTVRNRVGSDQCLLRLNVVPPSNKAG
  koff: 0.00221 s⁻¹
